Measurements from patent publication US20060239990A1, “Protein Arginine N-Methyltransferase 2 (PRMT-2)” (priority 2003, published 2006).

Assays:
Type in all cases: cell-based, human
NF-κB = NF-κB luciferase reporter assay in 293T cells
Protocol: Cell culture, transfection, and reporter gene assays. The E1A-transformed, human kidney cell line, 293, and NIH-3T3 cells were maintained in Dulbecco's Modified Eagle Medium (DMEM) supplemented with 10% fetal calf serum and penicillin-streptomycin at 37° C. in 5% carbon dioxide in tissue culture grade Petri dishes. PRMT-2−/− mouse embryo fibroblasts (MEFs) and wild type MEFs were prepared from day 13.5 embryos and maintained in DMEM supplemented with 10% fetal calf serum. MEFs at passage 4 were used in this experiment. Lipofectamine Plus™ reagent (Boehringer Mannheim) was used to transfect both 293 and NIH-3T3 cells according to directions from the manufacturer. […] TNF-α stimulation of cells was done using recombinant TNF-α (200 U/ml) for 12 hours. […] CAT assays were performed essentially as described in Leung, K. & Nabel, G. J. Nature 333, 776-778 (1988). To analyze the κB-reporter activity in MEFs, cells were transfected with the reporter (2×kB-Luc) and PRL-TK vector (Promega) using FuGENE6 transfection reagent (Roche). Luciferase activity was analyzed by Dual-Luciferase Reporter Assay System (Promega).
To map the domains responsible for inhibition of HIV transcription, truncation and point mutations were made in PRMT2 (FIG. 1D) and co-transfected with an NF-κB reporter in 293T cells. PRMT2-A represents an alternatively spliced form of PRMT2 found in the expressed sequence tag (EST) database. This isoform contains the first 218 amino acids of PRMT2 and differs from full length PRMT2 by the absence of the less conserved COOH-terminal domain. PRMT2-N was generated by introducing a stop codon after amino acid 95 before the putative Ado-Met domain of PRMT2. To analyze the role of the Ado-Met domain further, another mutant, PRMT2-4A, was prepared in which 141ILDV144 (SEQ ID NO:5) in this region were altered to four consecutive alanines to compare the effects of point mutations in this highly conserved region.
The mechanism and site of action of PRMT2 in the NF-κB signaling pathway was further defined by co-transfection of PRMT2 and its mutants with different regulators in this pathway with an NF-κB reporter in 293T cells (FIG. 2D).

293 cells = test: TNF-α-induced apoptosis in transfected 293 cells; conditions: TNF-α 1000 U/ml 24 hours
Protocol: Apoptosis analysis. Apoptosis in PRMT-2-expressing 293 cells was analyzed as follows. Cells were seeded at 2.5×10^5 per well in 6 well plates. The next day, empty vector, mutant IκBα (S32A/S36A), RelA or PRMT-2 was co-transfected with CD2 expression vector. Twenty-four hours after transfection cells were stimulated with TNF-α (1000 U/ml) for 24 hours. Both floating and attached cells in each well were harvested by EDTA treatment. Cells were stained with APC-labeled anti-CD2 antibody (BD Bioscience) in SM buffer (PBS containing 2% FCS). After washing twice with PBS, cells were stained with FITC-labeled Annexin V and propidium iodide using Annexin V FITC Apoptosis Detection Kit (Oncogene), and analyzed by flow cytometry (FACS Caliber, BD Bioscience).

IκB-α = test: Immunoblot of nuclear IκB-α in transfected 293 cells; conditions: transfected cells stimulated with TNF-α, vs PRMT2-N
Protocol: Small-scale preparation of nuclear extracts. A modified Dignam procedure (Dignam et al., Nucleic Acids Res. 11: 1475-89 (1983)) was used to prepare nuclear extracts from 293 cells. Cells were harvested, washed with PBS, resuspended in 1 ml Dignam buffer A, and transferred to pre-chilled microfuge tubes, which were spun at 1000 rpm for 1 minute. The supernatant was aspirated thoroughly, and pellets were carefully resuspended to avoid frothing, in 60 μl modified Dignam buffer A containing 0.1% Nonidet P-40 (NP40). Samples were incubated at 4° C. for approximately 10 minutes, and microcentrifuged for 10 minutes at 4° C. The cytoplasmic extract supernatant was diluted in 3 volumes of modified Dignam buffer D and frozen quickly. The pellets were resuspended in 40 μl Dignam buffer C. Samples were incubated for 15 minutes at 4° C. on a tumbler, and centrifuged again for 5 minutes at 4° C. The supernatant was diluted with 6 volumes of modified Dignam buffer D. Samples were frozen quickly in aliquots and stored at −70° C.
Western Blotting. Proteins resolved by SDS-polyacrylamide gel electrophoresis (PAGE) were transferred to polyvinylidene difluoride (PVDF) membranes. […]

B1: PRMT2: human PRMT-2 polypeptide, SEQ ID NO:2, expressed from pVR1012 vector with HA-tag (protein, listed as Homo sapiens)
chain: MATSGDCPRSESQGEEPAECSEAGLLQEGVQPEEFVAIADYAATDETQLSFLRGEKILILRQTTADWWWGERAGCCGYIPANHVGKHVDEYDPEDTWQDEEYFGSYGTLKLHLEMLADQPRTTKYHSVILQNKESLTDKVILDVGCGTGIISLFCAHYARPRAVYAVEASEMAQHTGQLVLQNGFADIITVYQQKVEDVVLPEKVDVLVSEWMGTCLLFEFMIESILYARDAWLKEDGVIWPTMAALHLVPCSADKDYRSKVLFWDNAYEFNLSALKSLAVKEFFSKPKYNHILKPEDCLSEPCTILQLDMRTVQISDLETLRGELRFDIRKAGTLHGFTAWFSVHFQSLQEGQPPQVLSTGPFHPTTHWKQTLFMMDDPVPVHTGDVVTGSVVLQRNPVWRRHMSVALSWAVTSRQDPTSQKVGEKVFPIWR
modifications: HA tag
NF-κB activity (NF-κB; 1 μg expression construct, 100 ng 5 κB luciferase reporter): inhibited NF-κB activity | IKK2- and p65-induced NF-κB activity (NF-κB; κB luciferase reporter, 48 hrs): inhibited both IKK2- and p65-induced NF-κB activity | susceptibility to TNF-induced cell death (293 cells): increased their susceptibility to TNF-induced cell death | increase in nuclear IκB-α protein levels over the mutant control (IκB-α): ~8 fold
